Numbering of substitutions follows the chain as printed.
How the values were obtained:
[1] = biological target: T1, human IL-3Rα E51Q/S59A double mutant, full length (human, UniProt P26951 19-378); experiment: flow cytometry on transfected cells (FIG. 5)
T1 chain: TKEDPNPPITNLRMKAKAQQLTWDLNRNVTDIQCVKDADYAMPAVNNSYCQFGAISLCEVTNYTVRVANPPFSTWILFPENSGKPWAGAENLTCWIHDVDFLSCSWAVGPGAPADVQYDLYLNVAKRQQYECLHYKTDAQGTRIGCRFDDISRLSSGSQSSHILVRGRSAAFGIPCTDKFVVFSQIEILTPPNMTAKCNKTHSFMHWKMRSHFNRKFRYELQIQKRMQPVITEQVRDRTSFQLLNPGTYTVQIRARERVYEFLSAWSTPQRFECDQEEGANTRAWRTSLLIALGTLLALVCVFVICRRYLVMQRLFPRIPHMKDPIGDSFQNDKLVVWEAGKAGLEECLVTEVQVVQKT

[2] = biological target: T2, human IL-3Rα E51Q/P88T double mutant, full length (human, UniProt P26951 19-378); experiment: flow cytometry on transfected cells (FIG. 5)
T2 chain: T1 chain with A41S, P70T

[3] = biological target: T3, human IL-3Rα S59A/P88T double mutant, full length (human, UniProt P26951 19-378); experiment: flow cytometry on transfected cells (FIG. 5)
T3 chain: T1 chain with Q33E, P70T

[4] = biological target: T4, human IL-3Rα E51Q/S59A/P88T triple mutant, full length (human, UniProt P26951 19-378); experiment: flow cytometry on transfected cells (FIG. 5)
T4 chain: T1 chain with P70T

[5] = biological target: T5, human IL-3Rα V53A, full length (human, UniProt P26951 19-378); experiment: Western blot, whole cell extracts of 293F cells
T5 construct: expressed in 293F cells; Western blot of whole cell extracts; also called V53, cell surface alanine
T5 sequence: T1 chain with Q33E, V35A, A41S

[6] = biological target: T6, human IL-3Rα W93A, full length (human, UniProt P26951 19-378); experiment: Western blot, whole cell extracts of 293F cells
T6 construct: expressed in 293F cells; Western blot of whole cell extracts; also called W93, cell surface alanine
T6 sequence: T1 chain with Q33E, A41S, W75A

[7] = biological target: T7, human IL-3Rα I94A, full length (human, UniProt P26951 19-378); experiment: Western blot, whole cell extracts of 293F cells
T7 construct: expressed in 293F cells; Western blot of whole cell extracts; also called I94, cell surface alanine
T7 sequence: T1 chain with Q33E, A41S, I76A

Measured: binding result

B1: antibody CSL362 (antibody, V domains shown)
VH: EVQLVQSGAEVKKPGESLKISCKGSGYSFTDYYMKWARQMPGKGLEWMGDIIPSNGATFYNQKFKGQVTISADKSISTTYLQWSSLKASDTAMYYCARSHLLRASWFAYWGQGTMVTVSS
VL: DIVMTQSPDSLAVSLGERATINCESSQSLLNSGNQKNYLTWYQQKPGQPPKPLIYWASTRESGVPDRFSGSGSGTDFTLTISSLQAEDVAVYYCQNDYSYPYTFGQGTKLEIKR
no binding: [1] | [2] | [3] | [4]

B2: monoclonal antibody 7G3 (antibody, V domains shown)
VH: EVQLQQSGPELVKPGASVKMSCKASGYTFTDYYMKWVKQSHGKSLEWIGDIIPSNGATFYNQKFKGKATLTVDRSSSTAYMHLNSLTSEDSAVYYCTRSHLLRASWFAYWGQGTLVTVSA
VL: DFVMTQSPSSLTVTAGEKVTMSCKSSQSLLNSGNQKNYLTWYLQKPGQPPKLLIYWASTRESGVPDRFTGSGSGTDFTLTISSVQAEDLAVYYCQNDYSYPYTFGGGTKLEIKR
notes: mouse monoclonal antibody (hybridoma ATCC HB-12009)
no binding: [5] | [6] | [7]

Source: US20160031996A1 (CSL, published 2016)
